US20240343831A1 (Regeneron, published 2024)

What was measured:
[1] = target: T1, ectodomain of human TMPRSS2-myc-myc-His (human, UniProt O15393 106-492); test: SPR Biacore T200, 37 C, t½ at pH 7.4 over t½ at pH 6.0
T1 construct: extracellular domain; also called hTMPRSS2-MMH; human TMPRSS2-MMH
Protocol: (§1) Dissociation rate constant (kd) for TMPRSS2 binding to purified anti-TMPRSS2 monoclonal antibody was determined using a real-time surface plasmon resonance based Biacore T200 biosensor platform. […] The CM5 Biacore sensor surface derivatized by amine coupling with an anti-human Fc specific mouse mAb was used to capture different anti-TMPRSS2 mAbs. All the TMPRSS2 reagents were expressed with a C-terminal myc-myc-hexahistidine tag (subsequently referred to as TMPRSS2-MMH).
(§2) Dissociation rate constants (kd) in two running buffers were determined by fitting the real-time binding sensorgrams to a 1:1 binding model using Scrubber 2.0c curve-fitting software.

[2] = target: T1, ectodomain of human TMPRSS2-myc-myc-His; test: SPR Biacore T200, mAb captured by anti-human Fc, 37 C, HBS-P pH 7.4
[3] = target: Macaca fascicularis TMPRSS2-MMH (Macaca fascicularis); test: as above
[4] = target: T1, ectodomain of human TMPRSS2-myc-myc-His; test: SPR Biacore T200, mAb captured by anti-human Fc, 37 C, dissociation in PBS-T pH 6.0
[5] = target: Macaca fascicularis TMPRSS2-MMH (Macaca fascicularis); test: as above
[6] = target: Macaca fascicularis TMPRSS2-MMH (Macaca fascicularis); test: SPR Biacore T200, mAb captured by anti-human Fc, 25 C, HBS-P pH 7.4
[7] = target: Macaca fascicularis TMPRSS2-MMH (Macaca fascicularis); test: SPR Biacore T200, 37 C, t½ at pH 7.4 over t½ at pH 6.0
[8] = target: T1, ectodomain of human TMPRSS2-myc-myc-His; test: SPR Biacore T200, mAb captured by anti-human Fc, 37 C, dissociation in PBS-T pH 7.4
[9] = target: Macaca fascicularis TMPRSS2-MMH (Macaca fascicularis); test: as above
[10] = target: T1, ectodomain of human TMPRSS2-myc-myc-His; test: SPR Biacore T200, mAb captured by anti-human Fc, 25 C, HBS-P pH 7.4
Protocol: (§3) The equilibrium dissociation constant (KD) for TMPRSS2 binding to different TMPRSS2 monoclonal antibodies (mAbs) was determined with a real-time surface plasmon resonance biosensor using a Biacore T200 instrument. All binding studies were performed in 10 mM HEPES, 150 mM NaCl, and 0.05% v/v Surfactant Tween-20, pH 7.4 (HBS-P) running buffer at 25° C. and 37° C. […] At the end of each cycle, the TMPRSS2 mAb captured surface was regenerated using a 12 sec injection of 20 mM phosphoric acid.
(§4) The association rate (kₐ) and dissociation rate (kd) were determined by fitting the real-time binding sensorgrams to a 1:1 binding model with mass transport limitation using Scrubber 2.0c curve-fitting software. Binding dissociation equilibrium constant (KD) and dissociative half-life (t½) were calculated from the kinetic rates as:

[11] = target: T2, mouse TMPRSS2-MMH (mouse, UniProt Q9JIQ8 105-490); test: SPR Biacore T200, mAb captured by anti-human Fc, 37 C, dissociation in PBS-T pH 7.4
T2 construct: extracellular domain; also called mTMPRSS2-MMH
Protocol: as §1, §2

[12] = target: T2, mouse TMPRSS2-MMH; test: SPR Biacore T200, mAb captured by anti-human Fc, 37 C, dissociation in PBS-T pH 6.0
Protocol: as §1, §2

[13] = target: T2, mouse TMPRSS2-MMH; test: SPR Biacore T200, mAb captured by anti-human Fc, 25 C, HBS-P pH 7.4
Protocol: as §3, §4

[14] = target: T2, mouse TMPRSS2-MMH; test: SPR Biacore T200, 37 C, t½ at pH 7.4 over t½ at pH 6.0
Protocol: as §1, §2

[15] = target: T2, mouse TMPRSS2-MMH; test: SPR Biacore T200, mAb captured by anti-human Fc, 37 C, HBS-P pH 7.4
Protocol: as §3, §4

T1 sequence (O15393 106-492): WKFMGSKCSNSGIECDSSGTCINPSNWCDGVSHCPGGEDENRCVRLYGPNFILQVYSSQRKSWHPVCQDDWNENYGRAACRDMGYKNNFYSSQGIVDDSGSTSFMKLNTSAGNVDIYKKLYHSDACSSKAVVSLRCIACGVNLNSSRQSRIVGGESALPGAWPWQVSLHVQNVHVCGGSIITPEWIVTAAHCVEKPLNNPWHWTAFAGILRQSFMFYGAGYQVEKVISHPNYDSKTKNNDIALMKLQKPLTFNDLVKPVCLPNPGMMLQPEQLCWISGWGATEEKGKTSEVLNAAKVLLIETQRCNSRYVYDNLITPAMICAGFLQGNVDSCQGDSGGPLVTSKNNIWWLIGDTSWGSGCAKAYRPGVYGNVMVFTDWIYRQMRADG
T2 sequence (Q9JIQ8 105-490): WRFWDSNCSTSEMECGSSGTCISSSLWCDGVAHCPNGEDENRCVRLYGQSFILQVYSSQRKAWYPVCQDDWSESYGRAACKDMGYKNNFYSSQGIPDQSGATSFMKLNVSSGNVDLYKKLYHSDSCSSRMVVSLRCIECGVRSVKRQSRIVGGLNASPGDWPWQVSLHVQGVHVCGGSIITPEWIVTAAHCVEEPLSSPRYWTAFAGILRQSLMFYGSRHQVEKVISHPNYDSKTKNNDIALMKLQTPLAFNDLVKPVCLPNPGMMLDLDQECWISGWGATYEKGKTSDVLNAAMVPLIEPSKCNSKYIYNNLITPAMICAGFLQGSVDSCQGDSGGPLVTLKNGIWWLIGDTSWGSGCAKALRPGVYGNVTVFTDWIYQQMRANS

B1: mAb8021 (antibody, human IgG4 S228P, kappa, V domains shown)
VH: QVQLVQSGAEVKKPGASVRVSCKASGYTFTNYGITWVRQAPGQGLEWMGGISVYNGNTEYAEKFQGRVSMTTDTSTTTAYLELRSLKSDDTAVYFCARGQLDYFDPWGQGTLVTVSS
VL: EIVMTQSPATLSVSPGERATLSCRASQSVRSNLAWYQQKPGQAPSLLIYGASTRATGIPARFSGSGSGTEFTLTISSLQSEDFAVYFCLQYNNWWTFGQGTKVEIKR
notes: also called anti-TMPRSS2 mAb
Q: For B1, which “t½ Ratio (pH 7.4/pH 6.0)” value [1] is on record?
A: 0.7

Q: And the Kd [2]?
A: 0.0627 nM

Q: And the koff [2]?
A: 0.000261 s⁻¹

Q: And the kon [2]?
A: 4.17e+06 M⁻¹ s⁻¹

Q: What about the t½ [2] of the same binder?
A: 44.2 min

Q: What about the 100 nM mfMPRSS2-MMH Bound (RU) [3] of the same binder?
A: 36.7 RU

Q: What about the Kd [3] of the same binder?
A: 0.0141 nM

Q: What about the koff [3] of the same binder?
A: 0.000109 s⁻¹

Q: And the kon [3]?
A: 7.71e+06 M⁻¹ s⁻¹

Q: What about the t½ [3] of the same binder?
A: 106 min

Q: What about the koff [4] of the same binder?
A: 0.000129 s⁻¹

Q: And the t½ [4]?
A: 90 min

Q: What about the 100 nm Ag Bound (RU) [5] of the same binder?
A: 70 RU

Q: And the koff [5]?
A: 0.000111 s⁻¹

Q: What about the t½ [5] of the same binder?
A: 104 min

Q: What about the 100 nM mfTMPRSS2-MMH Bound (RU) [6] of the same binder?
A: 63.4 RU

Q: What about the Kd [6] of the same binder?
A: 0.0252 nM

Q: What about the koff [6] of the same binder?
A: 0.000113 s⁻¹

Q: And the kon [6]?
A: 4.48e+06 M⁻¹ s⁻¹

Q: What about the t½ [6] of the same binder?
A: 102 min

Q: And the t½ Ratio (pH 7.4/pH 6.0) [7]?
A: 0.9

Q: What about the koff [8] of the same binder?
A: 0.000192 s⁻¹

Q: And the t½ [8]?
A: 60 min

Q: And the 100 nm Ag Bound (RU) [9]?
A: 71 RU

Q: And the koff [9]?
A: 0.000127 s⁻¹

Q: And the t½ [9]?
A: 91 min

Q: What about the Kd [10] of the same binder?
A: 0.0299 nM

Q: What about the koff [10] of the same binder?
A: 9.19e-05 s⁻¹

Q: And the kon [10]?
A: 3.08e+06 M⁻¹ s⁻¹

Q: And the t½ [10]?
A: 126 min

B2: mAb8029 (antibody, human IgG4 S228P, kappa, V domains shown)
VH: QLQLQESGPGLVKPSETLSLTCTVSGGSINSNSYYWGWIRQPPGKGLEWIGSIYYDRNTYYTPSLKSRVTISVDTSKNQFSLKLTSVTAADTAVYYCAREQVPGYYGMDVWGQGTTVTVSS
VL: DIQLTQSPSFLSASVGDRVTITCWASQGISRYLAWYQQKPGKTPKLLIYAASTLQSGVPSRFSGTGSGTDFTLTISNLQPEDFATYYCQQFDSYPWTFGQGTKVEIKR
notes: also called anti-TMPRSS2 mAb
Q: Which koff [11] does the source give for B2 here?
A: 0.00246 s⁻¹

Q: And the t½ [11]?
A: 5 min

Q: What about the “t½ Ratio (pH 7.4/pH 6.0)” value [1] of the same binder?
A: 1

Q: What about the koff [12] of the same binder?
A: 0.00257 s⁻¹

Q: What about the t½ [12] of the same binder?
A: 4 min

Q: And the Kd [13]?
A: 3.33 nM

Q: And the koff [13]?
A: 0.000442 s⁻¹

Q: And the kon [13]?
A: 133000 M⁻¹ s⁻¹

Q: And the t½ [13]?
A: 26.2 min

Q: What about the Kd [2] of the same binder?
A: 0.216 nM

Q: And the koff [2]?
A: 0.000673 s⁻¹

Q: What about the kon [2] of the same binder?
A: 3.12e+06 M⁻¹ s⁻¹

Q: And the t½ [2]?
A: 17.2 min

Q: And the 100 nM mfMPRSS2-MMH Bound (RU) [3]?
A: 35.3 RU

Q: What about the Kd [3] of the same binder?
A: 0.0758 nM

Q: And the koff [3]?
A: 0.000392 s⁻¹

Q: What about the kon [3] of the same binder?
A: 5.17e+06 M⁻¹ s⁻¹

Q: What about the t½ [3] of the same binder?
A: 29.5 min

Q: What about the koff [4] of the same binder?
A: 0.000615 s⁻¹

Q: And the t½ [4]?
A: 19 min

Q: What about the 100 nm Ag Bound (RU) [5] of the same binder?
A: 94 RU

Q: And the koff [5]?
A: 0.000339 s⁻¹

Q: What about the t½ [5] of the same binder?
A: 34 min

Q: What about the 100 nM mfTMPRSS2-MMH Bound (RU) [6] of the same binder?
A: 66.7 RU

Q: What about the Kd [6] of the same binder?
A: 0.0609 nM

Q: What about the koff [6] of the same binder?
A: 0.000196 s⁻¹

Q: And the kon [6]?
A: 3.2e+06 M⁻¹ s⁻¹

Q: What about the t½ [6] of the same binder?
A: 59.1 min

Q: What about the t½ Ratio (pH 7.4/pH 6.0) [7] of the same binder?
A: 0.8

Q: And the koff [8]?
A: 0.000624 s⁻¹

Q: What about the t½ [8] of the same binder?
A: 19 min

Q: And the “t½ Ratio (pH 7.4/pH 6.0)” value [14]?
A: 1

Q: And the 100 nm Ag Bound (RU) [9]?
A: 90 RU

Q: What about the koff [9] of the same binder?
A: 0.000408 s⁻¹

Q: What about the t½ [9] of the same binder?
A: 28 min

Q: What about the Kd [15] of the same binder?
A: 9.75 nM

Q: And the koff [15]?
A: 0.00209 s⁻¹

Q: What about the kon [15] of the same binder?
A: 214000 M⁻¹ s⁻¹

Q: What about the t½ [15] of the same binder?
A: 5.5 min

Q: And the Kd [10]?
A: 0.0592 nM

Q: And the koff [10]?
A: 0.000129 s⁻¹

Q: What about the kon [10] of the same binder?
A: 2.18e+06 M⁻¹ s⁻¹

Q: And the t½ [10]?
A: 89.5 min
